Experimental data as given in article PMC5800781.

What was measured:
BARD1 124-270 = BARD1 124-270 (UniProt Q99728 124-270); assay: EMSA
BRCA1;BARD1 = BRCA1;BARD1 (human?;human?, UniProt P38398;Q99728 1-1863;1-777, |); assay: EMSA
BRCA1 = BRCA1 (UniProt P38398 1-1863); assay: Southwestern
BARD1 = BARD1 (UniProt Q99728 1-777); assay: Southwestern
RAD51 = RAD51 (human, UniProt Q06609 1-339); assay: single-molecule DNA curtain
RAD51;BRCA1;BARD1 = RAD51;BRCA1;BARD1 (human;human?;human?, UniProt Q06609;P38398;Q99728 1-339;1-1863;1-777, ||); assay: single-molecule DNA curtain

Chain of BARD1 124-270 (Q99728 124-270): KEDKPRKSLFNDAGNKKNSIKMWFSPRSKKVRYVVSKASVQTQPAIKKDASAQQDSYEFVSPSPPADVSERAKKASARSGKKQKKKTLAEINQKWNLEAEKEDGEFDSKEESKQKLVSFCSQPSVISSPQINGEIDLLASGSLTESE
Chain of RAD51 (Q06609 whole entry): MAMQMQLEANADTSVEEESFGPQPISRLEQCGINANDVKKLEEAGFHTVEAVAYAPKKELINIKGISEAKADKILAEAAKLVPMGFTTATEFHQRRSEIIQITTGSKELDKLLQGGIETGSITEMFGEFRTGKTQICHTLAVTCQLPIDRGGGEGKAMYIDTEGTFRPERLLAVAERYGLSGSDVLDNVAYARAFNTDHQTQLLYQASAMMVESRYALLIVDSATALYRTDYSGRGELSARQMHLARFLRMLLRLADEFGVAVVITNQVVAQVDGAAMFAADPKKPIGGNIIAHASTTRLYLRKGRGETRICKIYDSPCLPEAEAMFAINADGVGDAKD
Chain of BARD1 (Q99728 whole entry): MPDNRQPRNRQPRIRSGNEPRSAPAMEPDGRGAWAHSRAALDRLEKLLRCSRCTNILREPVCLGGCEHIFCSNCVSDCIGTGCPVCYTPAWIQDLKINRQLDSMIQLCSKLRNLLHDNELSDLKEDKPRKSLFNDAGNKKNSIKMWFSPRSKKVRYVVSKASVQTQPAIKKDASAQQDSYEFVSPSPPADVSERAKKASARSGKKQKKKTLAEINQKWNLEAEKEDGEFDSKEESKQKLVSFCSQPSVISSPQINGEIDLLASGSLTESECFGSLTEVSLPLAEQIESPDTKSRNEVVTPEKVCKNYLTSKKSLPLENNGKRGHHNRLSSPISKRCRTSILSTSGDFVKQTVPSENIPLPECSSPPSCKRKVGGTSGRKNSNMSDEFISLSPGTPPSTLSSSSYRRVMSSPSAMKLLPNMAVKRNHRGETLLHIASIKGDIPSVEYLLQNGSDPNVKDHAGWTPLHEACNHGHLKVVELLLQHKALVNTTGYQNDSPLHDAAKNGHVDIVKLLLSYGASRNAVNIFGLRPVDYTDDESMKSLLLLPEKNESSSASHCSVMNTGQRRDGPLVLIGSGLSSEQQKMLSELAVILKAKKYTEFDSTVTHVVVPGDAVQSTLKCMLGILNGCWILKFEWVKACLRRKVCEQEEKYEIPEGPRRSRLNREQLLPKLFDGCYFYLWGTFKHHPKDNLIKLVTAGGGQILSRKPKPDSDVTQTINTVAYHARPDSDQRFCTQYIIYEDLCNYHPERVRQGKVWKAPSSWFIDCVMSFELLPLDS

Row | Binder | binding result (BARD1 124-270) | binding result (BRCA1;BARD1) | binding result (BRCA1) | binding result (BARD1) | binding result (RAD51) | binding result (RAD51;BRCA1;BARD1)
1 | D-loop (mixed) DNA 1: CATTGCATATTTAAAACATGTTGGAAGGCTCGATGCATGCTGATAGCCTACTAGTGCTGCTGGCTTTCAAATGACCTCTTATCAAGTGAC DNA 2: GTCACTTGATAAGAGGTCATTTGAATTCATGGCTTAGAGCTTAATTGCTGAATCTGGTGCTGGGATCCAACATGTTTTAAATATGCAATG DNA 3: CTGCTACGATGCTAGTCGTAGCTCGGCAGTCGTAGCAGGTTCCCAGCACCAGATTCAGCAATTAAGCTCTAAGCCATGAA | binds | binds | binds | binds | – | –
2 | DNA bubble (mixed) DNA 1: CATTGCATATTTAAAACATGTTGGAAGGCTCGATGCATGCTGATAGCCTACTAGTGCTGCTGGCTTTCAAATGACCTCTTATCAAGTGAC DNA 2: GTCACTTGATAAGAGGTCATTTGAATTCATGGCTTAGAGCTTAATTGCTGAATCTGGTGCTGGGATCCAACATGTTTTAAATATGCAATG | binds | binds | – | – | – | –
3 | replication fork (RF) (mixed) DNA 1: GACGCTGCCGAATTCTACCAGTGCCTTGCTAGGACATCTTTGCCCACCTGCAGGTTCACCC DNA 2: GGACATCTTTGCCCACCTGCAGGTTCACCC DNA 3: TGGGTGAACCTGCAGGTGGGCAAAGATGTCC DNA 4: GGGTGAACCTGCAGGTGGGCAAAGATGTCCCAGCAAGGCACTGGTAGAATTCGGCAGCGTC | – | binds | – | – | – | –
4 | Atto565 dsDNA 70 bp with 9-nt homology (dsDNA) DNA 1: CCGGAGGCCTTAGGCCTTAGGCCTTAGGCCTTCAGCTGTTAGCCTTAGCTAGCTAGCTAGCTAGCTAGCT DNA 2: AGCTAGCTAGCTAGCTAGCTAGCTAAGGCTAACAGCTGAAGGCCTAAGGCCTAAGGCCTAAGGCCTCCGG | – | – | – | – | binds | binds
